Experimental data reported in publication PMC3005147.

Target: human UbcH5c, full-length (aa 1-147) (human) (UniProt P61077)
Assay: ITC

Substance “human E4B U-box domain (aa 1208-1302) (from UniProt O95155 1208-1302) (domain or fragment)” has a Kd of 67.1 µM, a dH of 2.9 kcal/mol and a stoichiometry N of 0.99.
